Laboratory results from patent US20220409694A1, “POLYPEPTIDE, AND PREPARATION METHOD THEREFOR AND USE THEREOF” (SHANXI JINBO BIO-PHARMACEUTICAL CO., LTD., priority 2020, published 2022).

Key:
Assay in all cases: cell-based or functional assay
[1] = target: S protein of live 2019-nCoV (SARS-CoV-2) virus (2019-nCoV (SARS-CoV-2)) (UniProt P0DTC2)
[2] = target: SARS-CoV S protein (pcDNA3.1-SARS-CoV-S, on pseudovirus) (SARS-CoV) (UniProt P59594)
[3] = target: 2019-nCoV S protein (2019-nCoV-S, as encoded in pAAV-IRES-EGFP-2019-nCoV-S / pcDNA3.1) (2019-nCoV (SARS-CoV-2)) (UniProt P0DTC2)
[4] = target: WIV1-CoV S protein (pcDNA3.1-WIV1-CoV-S, on pseudovirus) (WIV1-CoV (SARS-like virus from bats))
[5] = target: Rs3367-CoV S protein (pcDNA3.1-Rs3367-CoV-S, on pseudovirus) (Rs3367-CoV (SARS-like virus from bats))

EK1-chol (peptide)
IC50, 2019-nCoV live virus (plaque reduction assay, VERO-E6) [1]: 36.5 nM
Inhibitory Activity, IC50 (pseudovirus infection of HuH7, luciferase) [2]: 10 nM
Inhibitory Activity, IC50 (pseudovirus infection of HuH7, luciferase) [3]: 20 nM
Inhibitory Activity, IC50 (pseudovirus infection of HuH7, luciferase) [4]: 40 nM
Inhibitory Activity, IC50 (pseudovirus infection of HuH7, luciferase) [5]: 30 nM

EK1-plam (peptide)
IC50, 2019-nCoV live virus (plaque reduction assay, VERO-E6) [1]: 436 nM
Inhibitory Activity, IC50 (pseudovirus infection of HuH7, luciferase) [2]: 170 nM
Inhibitory Activity, IC50 (pseudovirus infection of HuH7, luciferase) [3]: 360 nM
Inhibitory Activity, IC50 (pseudovirus infection of HuH7, luciferase) [4]: 100 nM
Inhibitory Activity, IC50 (pseudovirus infection of HuH7, luciferase) [5]: 130 nM
